Laboratory results published in PMC10279719 (Nature Communications, 2023).

Columns and labels:
Conditions in all cases: both partners purified
[1] = target: T1, PEAK3 tandem-pS69 peptide (residues 54-74) (human, N-terminal acetyl; phosphoserine at S69; C-terminal amide); assay: ITC; binary; peptide in the cell (20 µM, or 16.8 µM after a buffer titration), protein in the syringe; 25 °C, 20 mM HEPES pH 7.4, 150 mM NaCl, 1 mM TCEP; single binding site model
T1 construct: source: synthetic peptide, bought: Mimotopes (95% purity)
T1 peptide: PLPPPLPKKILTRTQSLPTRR

[2] = target: T2, PEAK3 tandem peptide, non-phosphorylated (residues 54-74) (human, N-terminal acetyl; C-terminal amide); assay: as above
T2 construct: source: synthetic peptide, bought: Mimotopes (95% purity)
T2 peptide: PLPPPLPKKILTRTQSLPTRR

[3] = target: T3, PEAK1^IDR1 (residues 1082-1746), from insect cells, phosphorylated by Src (human, UniProt Q9H792 1082-1746, phosphotyrosine at Y1107 (by Src in vitro, shown by MS/MS); other Src sites not stated; biotin (EZ-Link NHS-PEG4-Biotin, 1:1 molar ratio)); assay: SPR; biotinylated PEAK proteins (with or without Src phosphorylation) captured with a biotin CAPture kit, CrkII NSH3 as analyte; Biacore 8K+, 20 °C, HBS-TP (150 mM NaCl); 1 M NaCl regeneration; steady state
T3 construct: human PEAK1, UniProt Q9H792, residues 1082-1746; also called PEAK1-IDR1 (+ Src phosphorylation); source: Sf21 insect cells, purified; phosphorylated in vitro with recombinant Src kinase domain
T3 sequence (looked up): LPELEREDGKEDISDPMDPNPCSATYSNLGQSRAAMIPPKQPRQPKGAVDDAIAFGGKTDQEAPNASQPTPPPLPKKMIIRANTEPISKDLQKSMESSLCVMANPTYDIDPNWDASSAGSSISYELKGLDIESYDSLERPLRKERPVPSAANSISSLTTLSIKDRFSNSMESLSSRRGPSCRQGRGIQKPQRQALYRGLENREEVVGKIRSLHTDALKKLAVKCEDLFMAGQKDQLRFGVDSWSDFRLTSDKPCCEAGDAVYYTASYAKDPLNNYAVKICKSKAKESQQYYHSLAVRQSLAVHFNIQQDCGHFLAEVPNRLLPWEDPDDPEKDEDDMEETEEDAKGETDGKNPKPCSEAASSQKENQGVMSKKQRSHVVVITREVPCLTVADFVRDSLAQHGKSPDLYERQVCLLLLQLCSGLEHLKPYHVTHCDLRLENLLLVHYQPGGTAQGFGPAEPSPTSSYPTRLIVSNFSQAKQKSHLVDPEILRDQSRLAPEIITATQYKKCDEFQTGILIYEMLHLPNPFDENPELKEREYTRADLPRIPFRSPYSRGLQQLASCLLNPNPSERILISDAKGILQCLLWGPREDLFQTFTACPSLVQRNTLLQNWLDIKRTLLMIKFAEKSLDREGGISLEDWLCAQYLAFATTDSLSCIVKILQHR

[4] = target: T4, PEAK2^IDR1 (residues 802-1406), from insect cells (human, UniProt Q86YV5 802-1406, phosphorylation of the tandem site 14-3-3 motif (RAASSP) found by proteomic analysis; biotin (EZ-Link NHS-PEG4-Biotin, 1:1 molar ratio)); assay: as above
T4 construct: human PEAK2 (SgK223, PRAG1), UniProt Q86YV5, residues 802-1406; Purifies as a homodimer
T4 sequence (looked up): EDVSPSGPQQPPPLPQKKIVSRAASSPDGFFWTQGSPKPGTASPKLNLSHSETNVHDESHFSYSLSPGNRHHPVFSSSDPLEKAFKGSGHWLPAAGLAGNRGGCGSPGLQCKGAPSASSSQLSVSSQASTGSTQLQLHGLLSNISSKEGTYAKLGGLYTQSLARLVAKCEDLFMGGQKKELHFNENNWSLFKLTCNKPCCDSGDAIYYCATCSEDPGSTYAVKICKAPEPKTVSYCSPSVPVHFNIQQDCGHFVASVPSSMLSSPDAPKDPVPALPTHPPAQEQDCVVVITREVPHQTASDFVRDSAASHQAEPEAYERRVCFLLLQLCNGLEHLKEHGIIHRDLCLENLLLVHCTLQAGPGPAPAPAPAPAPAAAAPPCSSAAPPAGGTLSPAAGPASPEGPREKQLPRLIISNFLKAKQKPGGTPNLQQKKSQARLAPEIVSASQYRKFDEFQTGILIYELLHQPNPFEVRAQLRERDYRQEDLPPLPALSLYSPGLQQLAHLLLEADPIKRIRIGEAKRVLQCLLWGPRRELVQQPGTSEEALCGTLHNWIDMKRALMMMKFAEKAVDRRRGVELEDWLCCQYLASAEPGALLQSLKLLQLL

[5] = target: T5, full length PEAK3 (PEAK3^FL, residues 1-473), from insect cells (human, UniProt Q6ZS72 1-473, phosphoserine at S69; biotin (EZ-Link NHS-PEG4-Biotin, 1:1 molar ratio)); assay: as above
T5 construct: Immobilised as the complex with insect cell 14-3-3ε,ζ
T5 sequence (looked up): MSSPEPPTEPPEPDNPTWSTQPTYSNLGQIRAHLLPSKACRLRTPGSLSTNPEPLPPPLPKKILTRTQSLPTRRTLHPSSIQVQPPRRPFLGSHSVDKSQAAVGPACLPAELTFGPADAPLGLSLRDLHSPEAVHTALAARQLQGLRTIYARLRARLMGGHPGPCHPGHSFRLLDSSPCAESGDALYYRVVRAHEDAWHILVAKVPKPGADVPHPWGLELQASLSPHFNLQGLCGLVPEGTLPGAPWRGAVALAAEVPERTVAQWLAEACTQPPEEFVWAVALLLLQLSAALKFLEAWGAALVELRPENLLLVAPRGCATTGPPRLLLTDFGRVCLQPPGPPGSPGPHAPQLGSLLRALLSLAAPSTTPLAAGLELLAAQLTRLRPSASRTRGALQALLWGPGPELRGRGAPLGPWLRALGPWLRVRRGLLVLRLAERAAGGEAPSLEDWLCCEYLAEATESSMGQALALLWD

stoichiometry N [1]: 0.823
stoichiometry N [2]: 0.904
Kd [3]: 4.11 µM
Kd [4]: 4.79 µM
Kd [5]: 3.87 µM
B1: CrkII N-terminal SH3 domain (CrkII^NSH3, residues 134-191) (domain or fragment, human, UniProt P46108-1 134-191, looked up)
chain: AEYVRALFDFNGNDEEDLPFKKGDILRIRDKPEEQWWNAEDSEGKRGMIPVPYVEKYR
notes: human CrkII NSH3 domain, UniProt P46108-1, residues 134-191; Amine coupled to a CM5 chip in a2; analyte in a4; in the syringe in ITC
